Measurements: patent US8993518B2, “Compositions and methods for treating antiphospholipid syndrome” (Beth Israel Deaconess Medical Center, Inc., priority 2010, dated 2015)

Assays:
[1] = target: T1, β2GPI/anti-β2GPI antibody complexes (β2GPI in normal human serum) (Homo sapiens, UniProt P02749); assay: Inhibition of binding of β2GPI in human serum to cardiolipin in the presence of anti-β2GPI antibodies; conditions: 0.04% human serum, read-out: half-maximal inhibition of binding of β2GPI in serum to cardiolipin
T1 construct: pooled normal human serum (Innovative Research); tissue Innovative Research; host or cells: pooled normal human serum
T1 sequence (P02749 20-345): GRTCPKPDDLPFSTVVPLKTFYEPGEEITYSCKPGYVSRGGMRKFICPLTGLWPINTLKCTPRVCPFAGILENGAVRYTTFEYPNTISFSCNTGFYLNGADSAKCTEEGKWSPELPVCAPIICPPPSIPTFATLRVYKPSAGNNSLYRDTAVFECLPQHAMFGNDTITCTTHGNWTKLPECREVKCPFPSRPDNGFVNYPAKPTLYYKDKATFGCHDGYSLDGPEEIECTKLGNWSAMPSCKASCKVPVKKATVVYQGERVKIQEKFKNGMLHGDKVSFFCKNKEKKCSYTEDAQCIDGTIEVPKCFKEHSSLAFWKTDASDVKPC
Description: (§1) Cardiolipin-coated 96 well plates available as part of the ImmunoWELL cardiolipin IgG test kit (GenBio) were blocked with 0.5% of skim milk and 2% BSA in 20 mM Tris, 100 mM NaCl, 2 mM CaCl2, pH 7.4. The assay buffer contained 20 mM Tris, 100 mM NaCl, 2 mM CaCl2, pH 7.4 with 2% BSA and the wash buffer was 20 mM Tris, 100 mM NaCl, 2 mM CaCl2, pH 7.4. When the purified β2GPI (Haematologic Technologies, Inc.) was used in experiments, 27 mM glycine was added to the assay buffer to account for glycine present in the stock solution of β2GPI. β2GPI bound to cardiolipin was detected with peroxidase-conjugated anti-β2GPI antibodies (Cedarlane, CL20021HP, 2 mg/ml) diluted 1:2500. To detect β2GPI-DV bound to cardiolipin, we used peroxidase-conjugated anti-HA antibody (Abcam, ab1265, 1 mg/ml) directed to HA epitope tag at the N-terminus of β2GPI-DV diluted 1:2500. The peroxidase activity of the bound antibodies was detected using 2-2′-azino-di-[3-ethylbenzthizzoline]sulfonate (ABTS) chromogenic reagent by measuring OD at 405 nm. […] The fits of the raw data and the titration data points were then normalized to the maximum binding determined from the fit to facilitate comparison.
(§2) […] Then, samples were incubated on wells for an additional 1 hour and, after washing, the bound β2GPI/anti-β2GPI or β2GPI-DV/anti-tag antibody complexes were detected.

[2] = target: T2, β2GPI purified from human plasma (Homo sapiens, UniProt P02749); assay: Inhibition of binding of purified β2GPI to cardiolipin in the absence of anti-β2GPI antibodies; conditions: in the absence of anti-β2GPI antibodies (FIG. 5)
T2 construct: We used β2GPI purified from human plasma available from Haematologic Technologies, Inc; purchased Haematologic Technologies, Inc; host or cells: human plasma
T2 sequence (P02749 20-345): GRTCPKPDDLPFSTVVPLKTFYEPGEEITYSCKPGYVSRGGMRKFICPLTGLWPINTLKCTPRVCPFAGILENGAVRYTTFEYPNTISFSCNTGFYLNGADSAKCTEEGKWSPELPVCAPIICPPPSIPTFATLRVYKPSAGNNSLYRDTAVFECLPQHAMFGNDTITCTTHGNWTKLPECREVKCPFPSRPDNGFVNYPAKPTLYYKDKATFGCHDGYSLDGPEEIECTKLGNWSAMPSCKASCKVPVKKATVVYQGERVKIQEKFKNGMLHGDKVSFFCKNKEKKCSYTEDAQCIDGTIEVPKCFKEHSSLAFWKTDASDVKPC
Description: as §1, with “To detect β2GPI-DV bound to cardiolipin, we used peroxidase-conjugated anti-HA antibody (Abcam, ab1265, 1 mg/ml) directed to HA epitope tag at the N-terminus of β2GPI-DV diluted 1:2500.” left out
(§3) For the inhibition studies, increasing concentrations of A1 or A1-A1 were added to a constant amount of β2GPI (50 nM), normal human serum (1%) or β2GPI-DV (130 nM) and incubated for 1 hour at room temperature. […] Then, samples were incubated on wells for an additional 1 hour and, after washing, the bound β2GPI/anti-β2GPI or β2GPI-DV/anti-tag antibody complexes were detected.

[3] = target: T3, domain V of β2GPI (Homo sapiens, UniProt P02749); conditions: Lee et al., Structure 18:366-376, 2010; read-out: affinity of A1 for domain V of β2GPI; cited from earlier work
T3 sequence (P02749 263-345 limits assumed): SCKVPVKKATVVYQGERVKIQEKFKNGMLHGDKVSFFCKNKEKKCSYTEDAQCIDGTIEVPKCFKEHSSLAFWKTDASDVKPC

[4] = target: T4, dimeric β2GPI-DV/anti-tag antibody complexes (Homo sapiens, UniProt P02749); assay: Inhibition of binding of β2GPI-DV to cardiolipin in the presence of dimerization (anti-tag) antibodies; conditions: 30 nM β2GPI-DV, read-out: half-maximal inhibition of binding of β2GPI-DV to cardiolipin
T4 construct: Domain V of β2GPI (residues 244-326), was subcloned into a pET15b vector (Novagen); histidine tag followed by TEV protease site (N, cleaved yes); made in house
T4 sequence (P02749 263-345): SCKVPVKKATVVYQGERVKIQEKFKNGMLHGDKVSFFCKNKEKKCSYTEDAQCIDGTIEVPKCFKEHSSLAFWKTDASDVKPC
Description: as §1, §2

[5] = target: T5, β2GPI in normal human serum (Homo sapiens, UniProt P02749); assay: Inhibition of binding of β2GPI in human serum to cardiolipin in the absence of anti-β2GPI antibodies; conditions: 1% human serum, read-out: concentration of inhibitor at 50% inhibition of β2GPI in serum binding to cardiolipin
T5 construct: pooled normal human serum (Innovative Research); tissue Innovative Research; host or cells: pooled normal human serum
T5 sequence (P02749 20-345): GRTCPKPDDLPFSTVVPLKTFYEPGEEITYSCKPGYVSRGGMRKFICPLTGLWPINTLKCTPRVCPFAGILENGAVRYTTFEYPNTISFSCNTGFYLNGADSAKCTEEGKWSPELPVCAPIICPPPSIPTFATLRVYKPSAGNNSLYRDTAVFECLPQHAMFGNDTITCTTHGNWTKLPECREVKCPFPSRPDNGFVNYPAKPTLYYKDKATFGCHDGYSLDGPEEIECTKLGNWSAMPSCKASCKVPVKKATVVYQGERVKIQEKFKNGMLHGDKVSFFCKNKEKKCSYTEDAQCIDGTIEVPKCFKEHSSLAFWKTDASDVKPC
Description: as §1, with “To detect β2GPI-DV bound to cardiolipin, we used peroxidase-conjugated anti-HA antibody (Abcam, ab1265, 1 mg/ml) directed to HA epitope tag at the N-terminus of β2GPI-DV diluted 1:2500.” left out
as §3

[6] = target: T6, domain V of β2GPI (β2GPI-DV) (Homo sapiens, UniProt P02749); assay: Inhibition of binding of isolated domain V of β2GPI to cardiolipin in the absence of antibodies; conditions: in the absence of dimerization antibodies, read-out: concentration at half-maximal inhibition of binding of domain V to cardiolipin
T6 construct: Domain V of β2GPI (residues 244-326), was subcloned into a pET15b vector (Novagen); histidine tag followed by TEV protease site (N, cleaved yes); made in house
T6 sequence (P02749 263-345): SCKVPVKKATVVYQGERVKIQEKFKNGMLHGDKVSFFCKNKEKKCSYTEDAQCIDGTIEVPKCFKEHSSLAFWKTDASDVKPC
Description: as §1, with “To detect β2GPI-DV bound to cardiolipin, we used peroxidase-conjugated anti-HA antibody (Abcam, ab1265, 1 mg/ml) directed to HA epitope tag at the N-terminus of β2GPI-DV diluted 1:2500.” left out
as §3

[7] = target: T7, β2GPI/anti-β2GPI antibody complexes (β2GPI purified from human plasma) (Homo sapiens, UniProt P02749); assay: Inhibition of binding of purified β2GPI to cardiolipin in the presence of anti-β2GPI antibodies; conditions: 10 nM purified β2GPI, one-site inhibition fit, read-out: half-maximal inhibition of binding of purified β2GPI to cardiolipin
T7 construct: We used β2GPI purified from human plasma available from Haematologic Technologies, Inc; purchased Haematologic Technologies, Inc; host or cells: human plasma
T7 sequence (P02749 20-345): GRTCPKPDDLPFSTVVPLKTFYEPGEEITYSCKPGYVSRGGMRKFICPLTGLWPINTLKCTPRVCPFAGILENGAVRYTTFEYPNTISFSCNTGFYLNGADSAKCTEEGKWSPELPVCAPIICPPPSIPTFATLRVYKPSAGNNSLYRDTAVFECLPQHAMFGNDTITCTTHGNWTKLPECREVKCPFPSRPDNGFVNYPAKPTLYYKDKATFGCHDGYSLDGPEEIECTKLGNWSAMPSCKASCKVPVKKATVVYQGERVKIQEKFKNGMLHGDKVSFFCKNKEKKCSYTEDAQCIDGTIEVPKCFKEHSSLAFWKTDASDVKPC
Description: as §1, §2

[8] = Binding of β2GPI in normal human serum to cardiolipin-coated surface
Description: as §1, with “To detect β2GPI-DV bound to cardiolipin, we used peroxidase-conjugated anti-HA antibody (Abcam, ab1265, 1 mg/ml) directed to HA epitope tag at the N-terminus of β2GPI-DV diluted 1:2500.” left out
(§4) For the binding studies, 50 μl of increasing concentrations of either β2GPI (Haematologic Technologies, Inc.), pooled normal human serum (Innovative Research), or the purified recombinant β2GPI-DV were applied to wells and incubated for 1 hour at room temperature. […] Then, the samples were applied to cardiolipin, incubated for 1 hour, washed, and bound β2GPI or β2GPI-DV was detected.

[9] = Binding of purified β2GPI to cardiolipin-coated surface; set-up: species or system human; conditions: read-out: half-maximal binding of purified β2GPI to cardiolipin
Description: as §1, with “To detect β2GPI-DV bound to cardiolipin, we used peroxidase-conjugated anti-HA antibody (Abcam, ab1265, 1 mg/ml) directed to HA epitope tag at the N-terminus of β2GPI-DV diluted 1:2500.” left out
as §4

[10] = Binding of β2GPI-DV to cardiolipin-coated surface; conditions: read-out: binding of β2GPI-DV to cardiolipin, one-site model fit
Description: as §1, with “To detect β2GPI-DV bound to cardiolipin, we used peroxidase-conjugated anti-HA antibody (Abcam, ab1265, 1 mg/ml) directed to HA epitope tag at the N-terminus of β2GPI-DV diluted 1:2500.” left out
as §4

[11] = in the absence of anti-β2GPI antibodies
[12] = in the presence of anti-β2GPI antibodies

## A1: Monomeric first LA module, fragment of mouse ApoER2 (residues 12-47 of the mature protein)
[1]
  IC50: 218 ± 21 µM
[2]
  inhibition of binding of purified β2GPI to cardiolipin: only weakly inhibited
[3]
  Kd: 1000 µM
[4]
  IC50: 204 ± 33 µM
[5]
  IC50: 176 ± 37 µM
[6]
  IC50: 188 ± 44 µM
[7]
  IC50: 191 ± 34 µM

B1: β2GPI: Beta2-glycoprotein I, in pooled normal human serum or purified from human plasma (Haematologic Technologies, Inc.) (protein)
chain: GRTCPKPDDLPFSTVVPLKTFYEPGEEITYSCKPGYVSRGGMRKFICPLTGLWPINTLKCTPRVCPFAGILENGAVRYTTFEYPNTISFSCNTGFYLNGADSAKCTEEGKWSPELPVCAPIICPPPSIPTFATLRVYKPSAGNNSLYRDTAVFECLPQHAMFGNDTITCTTHGNWTKLPECREVKCPFPSRPDNGFVNYPAKPTLYYKDKATFGCHDGYSLDGPEEIECTKLGNWSAMPSCKASCKVPVKKATVVYQGERVKIQEKFKNGMLHGDKVSFFCKNKEKKCSYTEDAQCIDGTIEVPKCFKEHSSLAFWKTDASDVKPC
[8]; [11]
  half-maximal binding of β2GPI in serum to cardiolipin: 0.40±0.05 % of serum
[8]; [12]
  half-maximal binding of β2GPI in serum to cardiolipin: 0.028±0.004 % of serum
[9]; [11]
  EC50: 0.043 ± 0.004 µM
[9]; [12]
  EC50: 0.0024 ± 0.0004 µM

B2: A1-A1: Dimeric inhibitor: two A1 (LA) modules from ApoER2 connected by a flexible Gly-Ser-Ser-Gly linker, SEQ ID NO: 1 (protein)
chain: AECEEDQFRCRNERCIPLVWRCDEDNDCSDNSDEDDCGSSGCEEDQFRCRNERCIPLVWRCDEDNDCSDNSDEDDCEA
[2]
  inhibition of binding of purified β2GPI to cardiolipin: only weakly inhibited

B3: β2GPI-DV: Recombinant isolated domain V of β2GPI (residues 244-326), with an N-terminal HA tag in the binding assays (protein)
chain: YPYDVPDYASCKVPVKKATVVYQGERVKIQEKFKNGMLHGDKVSFFCKNKEKKCSYTEDAQCIDGTIEVPKCFKEHSSLAFWKTDASDVKPC
[10]; in the absence of anti-tag antibodies
  EC50: 0.112 ± 0.021 µM
[10]; in the presence of anti-tag antibodies
  EC50: 0.019 ± 0.001 µM
